Source: patent publication US20190211099A1, “METHODS AND COMPOSITIONS FOR TREATING CANCER WITH SIGLEC-9 ACTIVITY MODULATORS” (KING'S COLLEGE LONDON, priority 2016, published 2019)

Target: Siglec-9 expressed by primary monocytes, monocyte-derived macrophages and monocytic cell lines (THP-1, U937) (human) (UniProt Q9Y336)
Test: cell-based or functional assay

Siglec-9 expressed by primary monocytes, monocyte-derived macrophages and monocytic cell lines (THP-1, U937) (human), sequence (Q9Y336 19-463): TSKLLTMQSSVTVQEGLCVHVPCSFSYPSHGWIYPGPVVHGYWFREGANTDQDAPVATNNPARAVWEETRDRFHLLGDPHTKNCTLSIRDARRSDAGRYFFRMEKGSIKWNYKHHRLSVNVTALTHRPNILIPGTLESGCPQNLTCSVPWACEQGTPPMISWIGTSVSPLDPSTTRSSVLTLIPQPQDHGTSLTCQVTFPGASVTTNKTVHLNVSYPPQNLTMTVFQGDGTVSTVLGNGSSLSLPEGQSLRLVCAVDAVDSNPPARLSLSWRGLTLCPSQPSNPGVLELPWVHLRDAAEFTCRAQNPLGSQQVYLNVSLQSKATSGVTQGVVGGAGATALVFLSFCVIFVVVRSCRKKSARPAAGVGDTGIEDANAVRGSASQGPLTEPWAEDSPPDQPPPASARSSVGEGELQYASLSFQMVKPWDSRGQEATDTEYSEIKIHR

IDO mRNA expression in macrophages (qRT-PCR): 10 to 25 fold
Substance: MUC1-ST (recombinant secreted MUC1 consisting of 16 tandem repeats carrying sialylated Core-1 glycans, Ig part removed by trypsin) (from UniProt P15941 129-448) (ligand)
